Values of other authors in PMC7312390.

Assays:
Cys25 = Cys25 (UniProt position 158, GSCGSCWAFSA); settings: free cysteine protease (Cys/His ion pair in the apo state)
His57 = His57 (UniProt position 57, VVTAAHCGVTT); settings: free (apo) chymotrypsin

Substance	pKa (Cys25)	pKa (His57)
papain (Carica papaya (not stated in the article; inferred))	3.3	
chymotrypsin (not stated in the article (PDB 4CHA is bovine, Bos taurus, alpha-chymotrypsin))		7.5
